Literature values as cited in paper PMC10866363.

Biological target: Trigger factor (Escherichia coli) (UniProt P0A850)

Trigger factor, sequence (P0A850 whole entry): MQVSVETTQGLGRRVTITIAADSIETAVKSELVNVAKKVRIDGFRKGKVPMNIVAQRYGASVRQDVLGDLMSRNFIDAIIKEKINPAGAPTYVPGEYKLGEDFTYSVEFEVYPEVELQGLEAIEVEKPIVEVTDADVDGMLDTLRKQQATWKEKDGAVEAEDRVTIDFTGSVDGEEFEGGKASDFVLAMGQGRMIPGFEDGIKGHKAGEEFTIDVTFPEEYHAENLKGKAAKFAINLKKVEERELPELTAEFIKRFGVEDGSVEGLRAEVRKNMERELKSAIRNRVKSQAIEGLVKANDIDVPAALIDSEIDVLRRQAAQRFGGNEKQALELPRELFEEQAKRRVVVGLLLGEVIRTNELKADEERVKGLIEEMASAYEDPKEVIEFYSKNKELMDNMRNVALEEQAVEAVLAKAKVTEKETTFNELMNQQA

In the case of Trigger factor (from UniProt P0A850), the Kd is given as 2000 nM.
